Assay results: PMC3026782, “The Cytoskeletal Protein Ndel1 Regulates Dynamin 2 GTPase Activity” (PLoS ONE, 2011)

Experiments:
[1] = target: T1, GST-fused Dyn2 (UniProt P50570 1-870); experiment: cell-based or functional assay
T1 sequence (looked up): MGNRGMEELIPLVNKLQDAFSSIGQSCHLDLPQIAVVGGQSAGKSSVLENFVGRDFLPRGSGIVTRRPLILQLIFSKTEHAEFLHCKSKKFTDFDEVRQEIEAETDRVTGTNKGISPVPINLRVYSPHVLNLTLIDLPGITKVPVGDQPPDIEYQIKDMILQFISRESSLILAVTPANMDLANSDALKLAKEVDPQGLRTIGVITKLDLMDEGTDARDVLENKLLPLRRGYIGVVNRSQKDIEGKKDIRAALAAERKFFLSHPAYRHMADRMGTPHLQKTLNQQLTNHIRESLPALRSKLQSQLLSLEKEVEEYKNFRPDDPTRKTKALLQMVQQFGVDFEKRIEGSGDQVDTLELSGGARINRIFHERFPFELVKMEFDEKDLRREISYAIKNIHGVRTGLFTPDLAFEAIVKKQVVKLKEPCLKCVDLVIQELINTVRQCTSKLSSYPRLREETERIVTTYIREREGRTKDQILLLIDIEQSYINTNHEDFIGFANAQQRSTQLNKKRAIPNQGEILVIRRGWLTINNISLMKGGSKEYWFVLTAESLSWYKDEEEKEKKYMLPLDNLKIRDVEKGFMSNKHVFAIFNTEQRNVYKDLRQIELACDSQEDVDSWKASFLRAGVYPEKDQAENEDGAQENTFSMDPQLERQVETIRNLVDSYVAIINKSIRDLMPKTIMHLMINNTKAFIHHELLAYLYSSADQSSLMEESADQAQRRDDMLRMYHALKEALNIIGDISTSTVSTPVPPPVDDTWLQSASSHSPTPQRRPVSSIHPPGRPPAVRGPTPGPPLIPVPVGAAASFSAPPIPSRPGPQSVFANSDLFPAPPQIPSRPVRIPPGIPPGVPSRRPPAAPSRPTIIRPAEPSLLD

[2] = target: T2, GST-Dyn2 F5 (GTPase+middle+PH+GED domains); experiment: cell-based or functional assay
T2 chain: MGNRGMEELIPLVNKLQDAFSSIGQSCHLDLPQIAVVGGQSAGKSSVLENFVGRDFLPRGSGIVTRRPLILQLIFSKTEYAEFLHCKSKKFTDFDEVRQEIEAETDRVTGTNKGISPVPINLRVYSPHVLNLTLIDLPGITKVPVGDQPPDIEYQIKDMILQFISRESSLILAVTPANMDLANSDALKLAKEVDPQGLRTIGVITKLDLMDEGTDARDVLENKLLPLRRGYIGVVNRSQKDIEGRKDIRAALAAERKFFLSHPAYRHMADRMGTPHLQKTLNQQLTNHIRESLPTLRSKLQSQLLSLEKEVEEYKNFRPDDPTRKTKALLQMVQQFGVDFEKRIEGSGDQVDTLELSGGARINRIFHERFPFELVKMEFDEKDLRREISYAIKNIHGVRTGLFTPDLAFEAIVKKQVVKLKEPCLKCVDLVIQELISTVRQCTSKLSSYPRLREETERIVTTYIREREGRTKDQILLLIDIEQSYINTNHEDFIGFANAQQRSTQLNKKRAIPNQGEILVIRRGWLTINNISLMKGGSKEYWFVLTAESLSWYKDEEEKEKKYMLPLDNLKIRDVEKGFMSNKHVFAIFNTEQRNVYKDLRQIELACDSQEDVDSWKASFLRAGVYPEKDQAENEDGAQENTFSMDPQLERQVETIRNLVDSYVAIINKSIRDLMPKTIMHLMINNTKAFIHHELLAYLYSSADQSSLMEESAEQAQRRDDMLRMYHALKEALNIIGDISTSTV

B1: His-tagged Ndel1 (natural protein, UniProt Q9GZM8 1-345, looked up)
chain: MDGEDIPDFSSLKEETAYWKELSLKYKQSFQEARDELVEFQEGSRELEAELEAQLVQAEQRNRDLQADNQRLKYEVEALKEKLEHQYAQSYKQVSVLEDDLSQTRAIKEQLHKYVRELEQANDDLERAKRATIVSLEDFEQRLNQAIERNAFLESELDEKESLLVSVQRLKDEARDLRQELAVRERQQEVTRKSAPSSPTLDCEKMDSAVQASLSLPATPVGKGTENTFPSPKAIPNGFGTSPLTPSARISALNIVGDLLRKVGALESKLAACRNFAKDQASRKSYISGNVNCGVLNGNGTKFSRSGHTSFFDKGAVNGFDPAPPPPGLGSSRPSSAPGMLPLSV
radioactive GTPase assay: hydrolysis of GTP into GDP by Dyn2 oligomers (low salt) with against without Ndel1, over 60 minutes [1]: ~2 fold
non-radioactive (ELIPA) GTPase assay of F5 with against without Ndel1 [2]: ~1.3 fold
